Measured values reported in article PMC7447978, “The ASC-1 Complex Disassembles Collided Ribosomes” (Molecular Cell, 2020).

T1: ASCC1 with a C-terminal 8-histidine tag (human, UniProt Q8N9N2-2 1-357)
T1 construct: ASCC1, human, subunit of the ASC-1 complex (ASCC); Plasmid pFL-ASCC1-8His-ASCC3, fused by Cre with pUCDM-ASCC2-FLAG-TRIP4; The isoform is inferred from the printed reverse primer; also called ASCC1-8His; source: Sf21 insect cells, baculovirus, co-expressed with the other ASCC subunits; purified (NiNTA, anti-FLAG M2, heparin Sepharose); not shown: His8, C-terminal, kept
T1 sequence (looked up): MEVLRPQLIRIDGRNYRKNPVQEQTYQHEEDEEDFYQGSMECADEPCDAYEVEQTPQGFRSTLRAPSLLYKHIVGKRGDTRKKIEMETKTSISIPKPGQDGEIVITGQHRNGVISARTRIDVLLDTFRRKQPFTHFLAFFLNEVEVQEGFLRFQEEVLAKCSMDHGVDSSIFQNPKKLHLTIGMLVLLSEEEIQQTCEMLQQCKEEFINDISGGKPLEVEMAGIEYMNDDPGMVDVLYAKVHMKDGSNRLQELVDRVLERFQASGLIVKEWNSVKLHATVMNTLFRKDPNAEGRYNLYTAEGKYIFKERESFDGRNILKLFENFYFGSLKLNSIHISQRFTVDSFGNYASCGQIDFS

B1: ASC-1 (also known as TRIP4), untagged (natural protein, human, UniProt Q15650 1-581, looked up)
chain: MAVAGAVSGEPLVHWCTQQLRKTFGLDVSEEIIQYVLSIESAEEIREYVTDLLQGNEGKKGQFIEELITKWQKNDQELISDPLQQCFKKDEILDGQKSGDHLKRGRKKGRNRQEVPAFTEPDTTAEVKTPFDLAKAQENSNSVKKKTKFVNLYTREGQDRLAVLLPGRHPCDCLGQKHKLINNCLICGRIVCEQEGSGPCLFCGTLVCTHEEQDILQRDSNKSQKLLKKLMSGVENSGKVDISTKDLLPHQELRIKSGLEKAIKHKDKLLEFDRTSIRRTQVIDDESDYFASDSNQWLSKLERETLQKREEELRELRHASRLSKKVTIDFAGRKILEEENSLAEYHSRLDETIQAIANGTLNQPLTKLDRSSEEPLGVLVNPNMYQSPPQWVDHTGAASQKKAFRSSGFGLEFNSFQHQLRIQDQEFQEGFDGGWCLSVHQPWASLLVRGIKRVEGRSWYTPHRGRLWIAATAKKPSPQEVSELQATYRLLRGKDVEFPNDYPSGCLLGCVDLIDCLSQKQFKEQFPDISQESDSPFVFICKNPQEMVVKFPIKGNPKIWKLDSKIHQGAKKGLMKQNKAV
notes: ASC-1 (TRIP4), human, subunit of the ASC-1 complex (ASCC); Untagged, cloned with primers from the start codon to the stop codon; Plasmid pUCDM-ASCC2-FLAG-TRIP4; source: Sf21 insect cells, baculovirus, co-expressed with the other ASCC subunits; purified (NiNTA, anti-FLAG M2, heparin Sepharose)
B2: ASCC2 with a C-terminal FLAG tag (natural protein, human, UniProt Q9H1I8 1-757, looked up)
chain: MPALPLDQLQITHKDPKTGKLRTSPALHPEQKADRYFVLYKPPPKDNIPALVEEYLERATFVANDLDWLLALPHDKFWCQVIFDETLQKCLDSYLRYVPRKFDEGVASAPEVVDMQKRLHRSVFLTFLRMSTHKESKDHFISPSAFGEILYNNFLFDIPKILDLCVLFGKGNSPLLQKMIGNIFTQQPSYYSDLDETLPTILQVFSNILQHCGLQGDGANTTPQKLEERGRLTPSDMPLLELKDIVLYLCDTCTTLWAFLDIFPLACQTFQKHDFCYRLASFYEAAIPEMESAIKKRRLEDSKLLGDLWQRLSHSRKKLMEIFHIILNQICLLPILESSCDNIQGFIEEFLQIFSSLLQEKRFLRDYDALFPVAEDISLLQQASSVLDETRTAYILQAVESAWEGVDRRKATDAKDPSVIEEPNGEPNGVTVTAEAVSQASSHPENSEEEECMGAAAAVGPAMCGVELDSLISQVKDLLPDLGEGFILACLEYYHYDPEQVINNILEERLAPTLSQLDRNLDREMKPDPTPLLTSRHNVFQNDEFDVFSRDSVDLSRVHKGKSTRKEENTRSLLNDKRAVAAQRQRYEQYSVVVEEVPLQPGESLPYHSVYYEDEYDDTYDGNQVGANDADSDDELISRRPFTIPQVLRTKVPREGQEEDDDDEEDDADEEAPKPDHFVQDPAVLREKAEARRMAFLAKKGYRHDSSTAVAGSPRGHGQSRETTQERRKKEANKATRANHNRRTMADRKRSKGMIPS
notes: ASCC2, human, subunit of the ASC-1 complex (ASCC); Cloned with primers from the start codon to the last codons before the FLAG tag and stop; Plasmid pUCDM-ASCC2-FLAG-TRIP4; also called ASCC2-FLAG; source: Sf21 insect cells, baculovirus, co-expressed with the other ASCC subunits; purified (NiNTA, anti-FLAG M2, heparin Sepharose); not shown: FLAG, C-terminal, kept

Key:
[1] = target: T1, ASCC1 with a C-terminal 8-histidine tag; test: tandem affinity co-purification (NiNTA, anti-FLAG M2, heparin Sepharose); four subunits co-expressed in Sf21 insect cells; lysate bound to NiNTA through ASCC1-8His (washed at 300 mM NaCl), the eluate bound to anti-FLAG M2 resin through ASCC2-FLAG and eluted with FLAG peptide, then heparin Sepharose; elution fractions shown on a gel; 4°C, 20 mM Tris-HCl 8.0, 10% glycerol; settings: partners not purified
[2] = target: B2; test: as above; settings: partners not purified

Binder | stoichiometry N [1] | stoichiometry N [2]
B1 | ~1 | ~1
B2 | ~1 | 
